± gives the uncertainty stated by the source.

This series is described as follows: amyloid nucleation score (Sup35N fusion, yeast selection) (log enrichment); library NNK2; higher = more nucleation; inactive = no reads after selection. The gist of the method:
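DiMSum was used to calculate nucleation scores as log enrichment of output over input reads, centred on the mode score of non-aggregating sequences. Sequences with fewer than 100 input reads were not scored. Input and output came from Illumina sequencing of plasmid inserts in psi-negative yeast expressing peptides of 20 random codons fused to Sup35N, induced 24 hours with 100 μM copper sulfate and then grown 7 days at 30°C on medium lacking adenine and uracil.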
PTSNPSQRSRQRHQ displayed an amyloid nucleation score of 0.619 ± 0.81. With PTSWFRSNMKWFYPVSQPHW the figure was -0.434 ± 0.64; with PTVSLKDISGWIKPVRYLNG, 0.26 ± 0.25. As for PVIQYVTSG, the figure is -0.257 ± 0.5; as for PVLCVYFSIYN, 8.151 ± 0.054; as for PVLTYFKLQLMM, 2.23 ± 0.066. In turn, PVSGGVNFNNRLLITWRAFW came in with an amyloid nucleation score of 0.885 ± 0.58.

In turn, PWYLRVSEHHKPWEPENWG came in with an amyloid nucleation score of 0.552 ± 0.32. On to PYWFRFLSYVQMLEYFCAPV, for which the amyloid nucleation score is -0.764 ± 0.36. With PYYKAGGYMVMVHLSRLFLL the figure was -0.882 ± 0.47; with QCAVDSPYDIRKLRR, -0.086 ± 0.39; with QCGGIGFLILLNVCGDGLWI, 4.37 ± 0.092.

In the case of QCVKLNTNVLCTVSDYNARG, the amyloid nucleation score turned out to be 1.2 ± 0.11.

The substance QCYIVCFICSRYTNQVKLLY registered an amyloid nucleation score of 1.38 ± 0.14. With QDKYTSEECESRFVTYETVV the figure was 0.695 ± 0.57; with QEVSIKSFLRKYLLCYTMML, -1.05 ± 0.44. QFFRPRDVRERAEWNLAKLV came in with an amyloid nucleation score of 2.61 ± 0.12. As for QFFTLFDVSRRLHFNTWLRL, the figure is -1.14 ± 0.64; as for QFHADSRQGFNVSEMLCWDG, -0.393 ± 0.49; as for QFSLSFSDFCKSLW, 6.287 ± 0.03.

The substance QFTCYTVYNGYWA showed an amyloid nucleation score of 3.28 ± 0.15.

As to QGCMVSRNRVQHVVGSGLRW, the amyloid nucleation score came out at 0.727 ± 0.38. With QGFYDGQPV the figure was 0.203 ± 0.5; with QGGLDRMYGSDVVYFKDTYP, 0.379 ± 0.54; with QGIRALRLYKFLTTSLILLI, -1.42 ± 1.1. As for QGLCRV, the figure is 4 ± 0.069; as for QGLIFVSLFRCCSLCRQYTD, 2.72 ± 0.18; as for QGPHARRHPTFRHKLYVLVI, 3.54 ± 0.099.

QGRRISKLC came in with an amyloid nucleation score of -1.39 ± 1. As for QIACDCNLGGKWFTDMCYFA, the figure is -0.94 ± 0.55; as for QIFRLDFDARDSWAKMLESL, 0.536 ± 0.12. With QIIVLALMMWMGCRRRMERK the figure was 0.414 ± 0.65; with QILWYWGREVFSRRDRFCSV, 1 ± 0.68; with QKGYN, “inactive”. As for QKLLWCYACNVMRARSGSGT, the amyloid nucleation score was 7.18 ± 0.044.

The substance QKWVF showed an amyloid nucleation score of -0.76 ± 0.31. For the substance QLAYNEDMSVVGFCYIWYYG, the amyloid nucleation score stood at 6.456 ± 0.048. As for QLCFA, the figure is -0.031 ± 0.47. With QLFTMDN the figure was -0.459 ± 0.78; with QLRGLVL, 0.704 ± 0.44. With QLRVYEKFKWCQREWRMDRF the figure was 4.623 ± 0.034; with QLSFPSVTDLNRLAIIMLRV, 1.13 ± 0.4; with QLVGMD, 0.868 ± 0.27. In turn, QLVNMRTCLLSRDLRLLELL returned an amyloid nucleation score of -0.318 ± 0.45. With QLWMTQTRTPSSKIRSKP the figure was 0.641 ± 0.74; with QLYLWHCGFLTTDISGSNSS, -0.713 ± 0.63. As for QLYYMKF, the figure is 5.685 ± 0.042; as for QMEDSMYLNALRGVSWVTKL, “inactive”; as for QNRLLDFFSEPTSRS, -1.16 ± 1.1.

Consider QQGYVTLSNFCGRA, for which the amyloid nucleation score is -0.292 ± 0.5. As to QQLLSMLLFNFQYGCARLYC, the amyloid nucleation score turned out to be 0.072 ± 0.44.

QQYPWYWIFIFNIYKYPSVS displayed an amyloid nucleation score of 0.475 ± 0.42. The substance QRLYPFYCIGYYITMYVVHC showed an amyloid nucleation score of 2.45 ± 0.13. With QRPRGLNLRYTDTRWIFYGP, the amyloid nucleation score stood at 4.37 ± 0.045. In the case of QRSNGTNYHPPYKMKISHRP, the amyloid nucleation score entry is “inactive”. As for QRYWSAYDTRNLIGE, the figure is 1.41 ± 0.47; as for QSFNGS, -1.2 ± 0.54. Turning to QSLHTSANSLLNWNFMSLLT, the amyloid nucleation score is 0.871 ± 0.29. QSNRKYGETHWFSTCNMHVL: the amyloid nucleation score is 0.533 ± 0.45.

In turn, QSNSSRLHSCRGAIVICI returned an amyloid nucleation score of 6.751 ± 0.066. QSSTYLSPRLHTISDIPYNF gave an amyloid nucleation score of -0.781 ± 0.38.

As for QSTFFCTLQLGSKYFKECLS, the amyloid nucleation score was -1.22 ± 0.61. As for QSTWSHGFKGRSVWRGLTKG, the figure is 1.66 ± 0.36. QSVKLFNSPTSAELILGTKE: the amyloid nucleation score is -0.982 ± 0.78. Consider QTLAYTSDKTS, for which the amyloid nucleation score amounted to 0.549 ± 0.45. With QTRRIRYDWDAPQCGWVVTM the figure was 3.82 ± 0.079; with QTRTRNLLIAQVECRGRSSW, “inactive”; with QTTVHLTSLHMAGSLCV, -0.021 ± 0.79.

Consider QVIDTSPRHVMVIYVP, for which the amyloid nucleation score was -0.307 ± 0.76. QVKMSSYFVLFFAGPPHVSI showed an amyloid nucleation score of -1.13 ± 0.76. As to QVMMIWCIWDY, the amyloid nucleation score came out at 6.949 ± 0.042. With QVWFYIVVMLVTLTGLGQVG, the amyloid nucleation score turned out to be 1.16 ± 0.61. Substance QVWPLCLVAGSSFGRRGVTG had an amyloid nucleation score of 1.18 ± 0.29.

Consider QWGDYIGAASMW, for which the amyloid nucleation score was -0.767 ± 0.49.

In the case of QYALLVY, the amyloid nucleation score result is “inactive”. With QYIPMSLNCQLQYGSHAGQE the figure was -0.216 ± 0.49; with QYKIVVELYMLYNISKNVEG, 2.14 ± 0.16; with RADVRMFLTRGLKVDFG, -0.322 ± 0.49. RAIFR gave an amyloid nucleation score of -0.686 ± 0.56.

RALCTKVRTLLCFYLGVLWS displayed an amyloid nucleation score of 0.903 ± 0.74.

In turn, RALVRLHSDYMLWRFMVADS returned an amyloid nucleation score of 0.399 ± 0.42.

For the substance RALVSRCRVCADKSPASSCD, the amyloid nucleation score was -0.411 ± 0.45. With RANFSGTKLLVNTECLWLSV the figure was 2.35 ± 0.17.

The substance RAVLFAVVKQM registered an amyloid nucleation score of 0.874 ± 0.42. As for RAWSIAWYAYPFLIREFECN, the figure is 3.35 ± 0.079. With RCGCHDCVFLR the figure was -0.202 ± 0.46. With RCHRNFVSWVEDLGRRSIGV the figure was 4.53 ± 0.051; with RCILASAGWAIVGKNCEAPQ, 0.647 ± 0.26. As to RCLNQTTYRNNSPCAVLWCM, the amyloid nucleation score was determined as 7.028 ± 0.058. As for RCLWYKACMRPF, the entry is “inactive”; as for RCMGPIVPFDVNS, -0.704 ± 0.33; as for RCPLHPLGGLYTIWSDYLRL, 5.82 ± 0.075. As for RCRISVWVVGSCLSRMYG, the figure is 4.29 ± 0.056.

Consider RCRPFFPRNVFSRVENIYHA, for which the amyloid nucleation score is -0.602 ± 1.1. With RCRVFYQNHIYLGFLKCNQS the figure was 1.42 ± 0.16; with RCSCPANGFLMGQLAVMS, 2.83 ± 0.12.

Consider RCSTFFEYSQTIPHYLVTLF, for which the amyloid nucleation score was -0.91 ± 0.44. With RCVGNYIWIKAFPMCLMTRC the figure was -0.825 ± 1.1; with RCYPS, 0.277 ± 0.17.

Substance RDDVRRVRPLGSVVQDDSDG registered an amyloid nucleation score of 0.882 ± 0.18. As to RDNCVWYTGHSLKRMRIAKA, the amyloid nucleation score entry is “inactive”.

Take RDQFTISETRNAVDMDWKSK: the amyloid nucleation score is 0.007 ± 1.1. As for RDSTVFKIYCWPYNN, the figure is 6.493 ± 0.05. As for RDSVIYCCMMMKGTCAWLYL, the entry is “inactive”; as for RDVFVLCWDFFMVERCRDRC, 5.85 ± 0.072. As for RDVLTDNQNAIRLLRGVSAY, the figure is 0.298 ± 0.19; as for RDVWVRGLACLVASSTMHSS, 0.999 ± 0.32. RECLRLDGGPMNWV yielded an amyloid nucleation score of 0.192 ± 1.

Regarding RELQNLFPHCILWSIIMKPN, the amyloid nucleation score was -1.49 ± 1.1. Turning to REVDIISHTMGGHRFNRERN, the amyloid nucleation score result was “inactive”. As for REVQYWARYLSVMQLCFVSS, the figure is 2.19 ± 0.13; as for REVWCRISLKFFYMGDLFVR, 0.008 ± 0.8; as for REWVRYCRCWSCYYPTFFS, -0.198 ± 0.63. With RFAFVRNKTWEQLPMI the entry was “inactive”; with RFCHTSRGSGGLGRLCQLAL, 0.157 ± 1; with RFDSPG, 0.558 ± 0.4.

With RFEWVPGLSKGN, the amyloid nucleation score entry was “inactive”. In turn, RFFSMVTR came in with an amyloid nucleation score of 0.025 ± 0.33. Substance RFFYSCQASYPCSMVEMSVC displayed an amyloid nucleation score of -0.901 ± 0.44. For the substance RFGSADVSITRVDFSS, the amyloid nucleation score was 0.961 ± 0.15.

On to RFHGTGSQHS, for which the amyloid nucleation score is -0.496 ± 0.39. As to RFIRSWNFCDRD, the amyloid nucleation score entry is “inactive”.

Regarding RFLKNRMLNCKVIGIWWKCY, the amyloid nucleation score entry is “inactive”.

Take RFMFGNVKMLCVWAKRMLDI: the amyloid nucleation score was 3.16 ± 0.12.

Regarding RFRFYYCLDCSHL, the amyloid nucleation score result is “inactive”. On to RFRTKLECPYMIS, for which the amyloid nucleation score stood at 0.453 ± 0.35.

For the substance RFTLIFCGSRESNGG, the amyloid nucleation score stood at 6.43 ± 0.065.

RFVDEPWNTRDTDFLYV: the amyloid nucleation score is -0.368 ± 1.1.

Substance RFWMNNSLNLCQLILTR came in with an amyloid nucleation score of 0.333 ± 0.61. RFYDFLFLFIPSRIELIMFR yielded an amyloid nucleation score of -0.729 ± 1.1.

On to RFYIALMDFRSMIFGS, for which the amyloid nucleation score was 5.195 ± 0.046. As for RFYLVIFFVTL, the entry is “inactive”; as for RGALVICCNTLSCGRGRLGD, 10.22 ± 0.074; as for RGKFHCFL, -0.599 ± 0.41.

Take RGLISSVFVVMFDACGVIRC: the amyloid nucleation score amounted to 5.605 ± 0.035. For the substance RGLRA, the amyloid nucleation score was -0.213 ± 0.41. As for RGLRMTRIISFFGIVGL, the figure is 8.507 ± 0.026. As for RGWKSLWRLNFYVWVWHLKD, the figure is 2.67 ± 0.09. With RHAASVWLKDQDVLYPTMT the figure was 0.995 ± 0.16.

For the origin of these results see the supplement of paper PMC12042874.
